# Patent US20230406921A1 (MABWELL SHANGHAI BIOSCIENCE, published 2023)
# Columns and labels:
# [1] = molecular target: T1, CD47 on the surface of tumor cells (human, UniProt Q08722 19-323); experiment: flow cytometry on A431 cells
# T1 construct: whole, on cells; Same protein as m4; also called CD47 antigen on the surface of U937 and CCRF cells; SKOV-3
# [2] = molecular target: T1, CD47 on the surface of tumor cells; experiment: FACS on CCRF cells
# CD47-His = molecular target: T2, CD47-His (human, UniProt Q08722 19-139, limits assumed); experiment: Fortebio BLI
# T2 construct: not shown: His tag
# [3] = molecular target: T1, CD47 on the surface of tumor cells; experiment: FACS blocking assay on U937 cells; blocked ligand FITC-labelled rhSIRPα-Fc
# [4] = molecular target: T3, recombinant antigen of the extracellular region of CD47 (Sino Biological, Cat: 12283-H08H) (human, UniProt Q08722 19-139); experiment: Fortebio Octet QKe, antibody on AHC sensor, CD47 100 nM in solution
# T3 construct: extracellular domain; also called recombinant CD47 extracellular region; CD47 recombinant protein
# Method: The affinity of the antibody was determined by Octet QKe instrument of Fortebio Company. […] The kinetic parameters were determined.
# [5] = molecular target: T1, CD47 on the surface of tumor cells; experiment: FACS blocking assay on CCRF cells; blocked ligand FITC-labelled rhSIRPα-Fc
# [6] = molecular target: T1, CD47 on the surface of tumor cells; experiment: FACS on U937 cells
# [7] = molecular target: T3, recombinant antigen of the …; experiment: Fortebio BLI, recombinant CD47 extracellular region
# [8] = molecular target: T3, recombinant antigen of the …; experiment: Fortebio BLI, antibody on AHC sensor, CD47 extracellular region 100 nM;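 further: antibody held on the sensor through anti-human Fc capture, CD47 antigen in solution, association and dissociation phases each lasting 300 s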
# Method: (§1) The affinity between the obtained mutant antibody and the CD47 recombinant protein was determined by Fortebio. The antibody was immobilized on the surface of a sensor with the anti-human Fc capture antibody (AHC Sensor), and reacted with the recombinant antigen of the extracellular region of CD47 (with a working concentration of 100 nM) in the liquid phase. The duration for binding and dissociation was both 300 seconds. The kinetic parameters were determined.
# [9] = molecular target: T3, recombinant antigen of the …; experiment: Fortebio BLI, antibody on AHC sensor, CD47 extracellular region 100 nM; Table 6 (heavy chain mutant series);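 on koff: antibody held on the sensor through anti-human Fc capture, CD47 antigen in solution, association and dissociation phases each lasting 300 s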;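 on kon: antibody held on the sensor through anti-human Fc capture, CD47 antigen in solution, association and dissociation phases each lasting 300 s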
# Method: as §1
# human PD-L1 on cells = molecular target: T4, human PD-L1 on cells (human, UniProt Q9NZQ7 19-290); experiment: flow cytometry on A431 cells
# T4 construct: whole, on cells; also called MC38-hPD-L1/hCD47 cells; A431 cells
# T4 sequence (Q9NZQ7 19-290): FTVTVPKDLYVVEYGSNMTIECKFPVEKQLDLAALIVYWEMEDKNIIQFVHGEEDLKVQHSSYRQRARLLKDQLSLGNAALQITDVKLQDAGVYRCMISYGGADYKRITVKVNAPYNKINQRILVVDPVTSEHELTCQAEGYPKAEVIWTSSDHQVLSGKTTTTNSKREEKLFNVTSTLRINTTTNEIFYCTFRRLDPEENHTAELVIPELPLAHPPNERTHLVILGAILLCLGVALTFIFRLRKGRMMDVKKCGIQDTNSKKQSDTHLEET
binder,measurement,setting,value
"1F8 (antibody, human IgG4, V domains shown, also called anti-CD47 antibody 1F8; control anti-CD47 monoclonal antibody 1F8) VH: KVQLVESGGGLVKPGGSLRLSCAASGFTFSNAWMNWVRQAPGKGLEWVGRIKRKTDGETTDYAAPVKGRFSISRDDSKNTLYLQMNSLKTEDTAVYYCAGSNRAFDIWGQGTMVTVSA VL: DIVMTQSPDSLAVSLGERATINCKSSQSVLYSSNNRNYLAWYQQKPGQPPKLLINQASTRASGVPDRFSGSGSGTEFTLIISSLHAEDVAIYYCQQYYTPPLAFGGGTKLEIK",EC50 (read off the curve),[1],2 to 3 nM
"humanized 140 (hz140) (antibody, human IgG4 S228P, kappa, V domains shown, also called anti-CD47 monoclonal antibody; anti-CD47 sidearm monoclonal antibody) VH: QVQLVQSGAEVKKPGASVKVSCKASGYKFTNYVMHWVRQAPGQRLEWMGYINPYNDGIKYNEKFTGRVTITRDTSASTAYMELSSLRSEDTAVYYCAREGDFYANYGRLGFAYWGQGTLVTVSS VL: DIQMTQSPSSLSASVGDRVTITCRASQDITNYLNWYQQKPGKAPKLLIYYTSRLHSGVPSRFSGSGSGTDYTFTISSLQPEDIATYFCQQGDTFPRTFGGGTKVEIKR",EC50 (read off the curve),[2],~0.06 µg/mL
same,Kd,CD47-His,1.5 nM
same,koff,CD47-His,0.00037 s⁻¹
same,kon,CD47-His,247000 M⁻¹ s⁻¹
same,IC50 (read off the curve),[3],~0.3 µg/mL
same,Kd,[4],1.89 nM
same,koff,[4],0.000933 s⁻¹
same,kon,[4],493000 M⁻¹ s⁻¹
same,IC50 (read off the curve),[5],~0.3 µg/mL
same,EC50 (read off the curve),[6],~0.2 µg/mL
same,Kd,[7],0.688 nM
same,koff,[7],0.00022 s⁻¹
same,kon,[7],320000 M⁻¹ s⁻¹
"hz140-H/hz182-L (antibody, V domains shown, Hybrid antibody: heavy chain of hz140 with the light chain of hz182) VH: QVQLVQSGAEVKKPGASVKVSCKASGYKFTNYVMHWVRQAPGQRLEWMGYINPYNDGIKYNEKFTGRVTITRDTSASTAYMELSSLRSEDTAVYYCAREGDFYANYGRLGFAYWGQGTLVTVSS VL: DIQMTQSPSSLSASVGDRVTITCRASQDISNYLNWYQQKPGKAPKLLLYYTSRLHSGVPSRFSGSGSGTDYTLTISSLQPEDFATYFCQQGAGRPYTFGGGTKVEIK",koff,[8],0.000226 s⁻¹
same,kon,[8],315000 M⁻¹ s⁻¹
same,Kd,[4],7.03 nM
same,koff,[4],0.00108 s⁻¹
same,kon,[4],154000 M⁻¹ s⁻¹
same,Kd,[9],0.719 nM
"anti-PD-L1 monoclonal antibody (hz182) (antibody, human IgG4 S228P, kappa, V domains shown, also called humanized anti-human PD-L1 antibody; anti-PD-L sidearm monoclonal antibody) VH: QLVQSGAEVKKPGATVKISCKVSGFNIKDIYMHWVQQAPGKGLEWMGRIDPANANTKYDPKFQDRVTITADTSTNTAYMELSSLRSEDTAVYYCASGQLGPLGFDYWGQGTTVTVSS VL: DIQMTQSPSSLSASVGDRVTITCRASQDISNYLNWYQQKPGKAPKLLLYYTSRLHSGVPSRFSGSGSGTDYTLTISSLQPEDFATYFCQQGAGRPYTFGGGTKVEIKR",EC50 (read off the curve),human PD-L1 on cells,~0.1 nM
